Experimental data as given in patent US20230408517A1 (BIO TECHNE, published 2023).
Like-named read-outs stand apart in the source and are kept apart here.

B1: 1035755 (antibody, V domains shown)
VH: EVQLQQSGAELVRPGALVKLSCKASGFNIKDYYMHWVKQRPEQGLEWIGWIDPENGNSIYDPKFQGKASITADTSSNTAYLQLSSLTSEDTAVYYCATPSATSYFDYWGQGTTLTVSS
VL: QIVLTQSPAIMSASPGEKVTISCSASSSVSYMYWYQQKPGSSPKPWIYRTSNLASGVPARFSGSGSGTSYSLTISSMEAEDAATYYCQQYHSYPYMYTFGGGTKLEIK
B2: 1035709 (antibody, V domains shown)
VH: EVQLQQSGPELVKPGASVKISCKTSGYTFTEYTMHWVKQSHGKSLEWIGGINPNIVDTGYNQKFKGKATLTVDKSSSTAYMELRSLTSEDSAVYYCARDGYPLYYAMDYWGQGTSVTVSS
VL: DIQMTQSPSSLSASLGERVSLTCRASQEISGYLSWLQQKPDGTIKRLIYAASTLDSGVPKRFSGSRSGSDYSLTISSLESEDFADYYCLQYASYPWTFGGGTKLEIK
B3: 1035762 (antibody, V domains shown)
VH: EVQLQQSGPELVKPGASVKISCKTSGYTFTEYTMHWVKQSHGKSLEWIGGINPNNGDTGYNQKFKGKATLTVDKSSSTAYMELRSLTFEDSAVYYCARDGYPLYYAMDYWGQGTSVTVSS
VL: DIQMTQSPSSLSASLGERVSLTCRASQEISGYLCWLQQKPDGTIKRLIYAASTLDSAVPKRFSGSRSGSDYSLTISSLESEDFADFYCLQYASYPWTFGGGTKLEIK
B4: 1035211 (antibody, V domains shown)
VH: QVQLQQSGAELARPGASVKMSCKASGYTFTNYTMHWVKQRPGQGLEWIGYINPSSGYTNYNQKFKDKATLTADKSSSTAYMQLSSLTSEDSAVYYCARRNPLYAMDYWGQGTSVTVSS
VL: DIKMTQSPSSMYASLGERVTITCKASQDINSYLNWFQQKPGKSPKTLIYRANRLVDGVPSRFSGSGSGQDYSLTISSLEFEDMGIYYCLQYDEFPYTFGGGTKLEIK
B5: 1035740 (antibody, V domains shown)
VH: EVLLQQSGPELVKPGASVKIPCKASGYTFTDYNMDWVKQSHGKSLEWIGDINPNNGFTIYNQKFKGKATLTVDKSSSTAYMELRSLTSEDTAVYYCAREGYGNYFDYWGQGTTLTVSS
VL: DVLLTQSPAILSVSPGERVSFSCRASQSIGTSLHWYQQRTNGSPRLLIKYVSESISGIPSRFSGSGSGTDFTLSINSVESEDIADYYCQQSSSWPTTFGAGTKLELK
B6: 1035753 (antibody, V domains shown)
VH: EVQLQQSGAELVRPGALVKLSCKASGFNIKDYYMHWVKQRPEQGLEWIGWIDPENGNTIYDPKFLGKASITADTSSNTAYLQLSSLTSEDTAVYYCARWYYYAMDSWGQGTSVTVSS
VL: DIQMTQTTSSLSASLGDRVTISCSASQGISNYLNWYQQKPDGTVKLLIYYTSSLHSGVPSRFSGSGSGTDYSLTISNLEPEDIATYYCQQYSKLPFTFGGGTNLEMK

Tests used:
[1] = biological target: T1, recombinant monomeric SARS-CoV-1 S1 protein (SARS-CoV-1, UniProt P59594 14-667); assay: flow cytometry, blocking of binding to hACE-2 cells
[2] = biological target: T2, recombinant monomeric SARS-CoV-2 S1 protein, his-tagged (SARS-CoV-2, UniProt P0DTC2 16-681); assay: as above
T2 construct: domain: S1

[3] = biological target: T3, SARS-CoV spike RBD (R306-F527), C-terminal 6-His (SARS-CoV, UniProt P59594 306-527); assay: as above
[4] = biological target: T4, recombinant his-tagged homotrimeric SARS-CoV-2 spike protein (SARS-CoV-2, UniProt P0DTC2 16-1211); assay: as above
[5] = biological target: T4, recombinant his-tagged homotrimeric …; assay: as above; remark: listed apart in the source
[6] = biological target: T1, recombinant monomeric SARS-CoV-1 S1 …; assay: as above; remark: listed apart in the source
[7] = biological target: T3, SARS-CoV spike RBD (R306-F527), …; assay: as above; remark: listed apart in the source
[8] = biological target: T3, SARS-CoV spike RBD (R306-F527), …; assay: antigen-down ELISA, coated SARS-CoV-1 S1 RBD titrated, Ab 1 µg/mL
[9] = biological target: T2, recombinant monomeric SARS-CoV-2 S1 …; assay: flow cytometry, blocking of binding to hACE-2 cells; remark: listed apart in the source
[10] = biological target: T1, recombinant monomeric SARS-CoV-1 S1 …; assay: antigen-down ELISA, coated SARS-CoV-1 S1 titrated, Ab 1 µg/mL
BSA [11] = biological target: T5, BSA (bovine, UniProt P02769); assay: dipstick, adsorbed protein spots, Ab 10 µg/mL, GAM-AuNP
T5 construct: also called bovine serum albumin
T5 sequence (P02769 25-607 limits assumed): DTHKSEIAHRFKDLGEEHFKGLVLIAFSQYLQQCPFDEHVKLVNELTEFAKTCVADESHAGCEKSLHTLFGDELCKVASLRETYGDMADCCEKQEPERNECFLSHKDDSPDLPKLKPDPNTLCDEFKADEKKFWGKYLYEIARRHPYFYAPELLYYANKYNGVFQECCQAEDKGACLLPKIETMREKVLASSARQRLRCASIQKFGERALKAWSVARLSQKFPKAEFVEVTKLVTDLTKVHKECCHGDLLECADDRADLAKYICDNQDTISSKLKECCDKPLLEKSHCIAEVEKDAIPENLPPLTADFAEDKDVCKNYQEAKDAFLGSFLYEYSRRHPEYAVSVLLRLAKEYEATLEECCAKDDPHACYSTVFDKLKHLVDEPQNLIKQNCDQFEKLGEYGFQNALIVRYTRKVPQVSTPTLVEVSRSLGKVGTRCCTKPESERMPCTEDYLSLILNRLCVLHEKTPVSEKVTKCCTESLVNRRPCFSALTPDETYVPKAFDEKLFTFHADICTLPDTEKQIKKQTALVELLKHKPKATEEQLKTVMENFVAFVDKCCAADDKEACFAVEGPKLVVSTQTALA

[12] = biological target: T3, SARS-CoV spike RBD (R306-F527), …; assay: antigen-down ELISA, coated SARS-CoV-1 S1 RBD titrated, Ab 1 µg/mL; remark: listed apart in the source
[13] = biological target: T1, recombinant monomeric SARS-CoV-1 S1 …; assay: antigen-down ELISA, coated SARS-CoV-1 S1 titrated, Ab 1 µg/mL; remark: listed apart in the source
[14] = biological target: T1, recombinant monomeric SARS-CoV-1 S1 …; assay: as above; remark: listed apart in the source
BSA [15] = biological target: T5, BSA; assay: dipstick, adsorbed protein spots, Ab 10 µg/mL, GAM-AuNP; remark: listed apart in the source
[16] = biological target: T3, SARS-CoV spike RBD (R306-F527), …; assay: antigen-down ELISA, coated SARS-CoV-1 S1 RBD titrated, Ab 1 µg/mL; remark: listed apart in the source
[17] = biological target: T3, SARS-CoV spike RBD (R306-F527), …; assay: as above; remark: listed apart in the source
[18] = biological target: T1, recombinant monomeric SARS-CoV-1 S1 …; assay: antigen-down ELISA, coated SARS-CoV-1 S1 titrated, Ab 1 µg/mL; remark: listed apart in the source
BSA [19] = biological target: T5, BSA; assay: dipstick, adsorbed protein spots, Ab 10 µg/mL, GAM-AuNP; remark: listed apart in the source
[20] = biological target: T3, SARS-CoV spike RBD (R306-F527), …; assay: lateral flow NC50, RBD-AuNP vs immobilised ACE2
BSA [21] = biological target: T5, BSA; assay: dipstick, adsorbed protein spots, Ab 10 µg/mL, GAM-AuNP; remark: listed apart in the source
[22] = biological target: T3, SARS-CoV spike RBD (R306-F527), …; assay: antigen-down ELISA, coated SARS-CoV-1 S1 RBD titrated, Ab 1 µg/mL; remark: listed apart in the source
[23] = biological target: T1, recombinant monomeric SARS-CoV-1 S1 …; assay: antigen-down ELISA, coated SARS-CoV-1 S1 titrated, Ab 1 µg/mL; remark: listed apart in the source

Binder	percent blocking [1] [%]	percent blocking [2] [%]	percent blocking [3] [%]	percent blocking [4] [%]	percent blocking [5] [%]	percent blocking [6] [%]	percent blocking [7] [%]	percent blocking [9] [%]	other results
B1	1.3	93.3	0	84.6	84.6	1.3	0	93.3	binding result [8]: no binding (tested: 400 ng coated (axis)); binding result [10]: no binding (tested: 400 ng coated (axis))
B2	0	93.6	0	96.5	96.5	0	0	93.6	binding result (BSA [11]): no binding (tested: 10 µg/mL); binding result [12]: no binding (tested: 400 ng coated (axis)); binding result [13]: no binding (tested: 400 ng coated (axis))
B3	0	93.2	0	93	93	0	0	93.2	binding result [14]: no binding (tested: 400 ng coated (axis)); binding result (BSA [15]): no binding (tested: 10 µg/mL); binding result [16]: no binding (tested: 400 ng coated (axis))
B4	0	88.7	0.1	78.6	78.6	0	0.1	88.7	binding result [17]: no binding (tested: 400 ng coated (axis)); binding result [18]: no binding (tested: 400 ng coated (axis))
B5	92.4	93.4	98.8	96.5	96.5	92.4	98.8	93.4	binding result (BSA [19]): no binding (tested: 10 µg/mL); IC50 [20]: 0.84 µg/mL
B6	0	94	0	96.6	96.6	0	0	94	binding result (BSA [21]): no binding (tested: 10 µg/mL); binding result [22]: no binding (tested: 400 ng coated (axis)); binding result [23]: no binding (tested: 400 ng coated (axis))
